Experimental data: patent publication US20260209323A1 (WHITEHEAD INSTITUTE FOR BIOMEDICAL RE SEARCH, published 2026)

Tests used:
[1] = molecular target: T1, GSDMD^CT (human, UniProt P57764); test: LUMIER co-IP in HEK293T, HA-tagged VHH with Renilla luciferase fusion
T1 construct: domain fused to Renilla luciferase; LUMIER bait; also called GSDMD^CT-Renilla luciferase fusion
T1 sequence (single chain, looked up): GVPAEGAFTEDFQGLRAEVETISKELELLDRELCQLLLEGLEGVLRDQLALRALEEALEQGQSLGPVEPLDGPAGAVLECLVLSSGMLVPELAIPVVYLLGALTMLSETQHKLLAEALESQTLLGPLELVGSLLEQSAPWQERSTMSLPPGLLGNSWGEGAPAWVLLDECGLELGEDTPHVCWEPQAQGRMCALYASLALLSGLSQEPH

[2] = molecular target: T2, human gasdermin D (GSDMD), full length (human, UniProt P57764 1-484, chemically biotinylated (sites not given) in the SPR experiments); test: nanoDSF thermal shift, equimolar GSDMD and nanobody
T2 construct: Used in SPR (biotinylated), nanoDSF and the liposome assay; the same entry is used for endogenous GSDMD of THP-1 cells; also called wild type, human GSDMD; GSDMD 1-484
T2 sequence: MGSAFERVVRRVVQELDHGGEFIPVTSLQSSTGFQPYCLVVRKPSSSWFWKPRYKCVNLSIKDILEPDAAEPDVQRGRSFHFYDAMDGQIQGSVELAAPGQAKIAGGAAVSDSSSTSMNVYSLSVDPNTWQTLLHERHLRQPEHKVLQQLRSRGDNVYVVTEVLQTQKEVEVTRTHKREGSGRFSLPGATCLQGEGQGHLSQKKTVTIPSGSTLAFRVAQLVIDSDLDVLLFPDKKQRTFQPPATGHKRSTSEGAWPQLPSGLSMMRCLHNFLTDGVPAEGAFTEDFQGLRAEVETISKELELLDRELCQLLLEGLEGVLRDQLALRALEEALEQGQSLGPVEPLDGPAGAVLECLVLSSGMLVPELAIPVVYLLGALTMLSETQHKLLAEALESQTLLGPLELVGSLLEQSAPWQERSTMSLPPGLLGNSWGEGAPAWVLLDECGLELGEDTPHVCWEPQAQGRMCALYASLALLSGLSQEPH

[3] = molecular target: T3, murine GsdmD (murine, UniProt Q9D8T2 1-487); test: LUMIER co-IP in HEK293T, HA-tagged VHH with Renilla luciferase fusion
T3 construct: not shown: Renilla luciferase
T3 sequence (looked up): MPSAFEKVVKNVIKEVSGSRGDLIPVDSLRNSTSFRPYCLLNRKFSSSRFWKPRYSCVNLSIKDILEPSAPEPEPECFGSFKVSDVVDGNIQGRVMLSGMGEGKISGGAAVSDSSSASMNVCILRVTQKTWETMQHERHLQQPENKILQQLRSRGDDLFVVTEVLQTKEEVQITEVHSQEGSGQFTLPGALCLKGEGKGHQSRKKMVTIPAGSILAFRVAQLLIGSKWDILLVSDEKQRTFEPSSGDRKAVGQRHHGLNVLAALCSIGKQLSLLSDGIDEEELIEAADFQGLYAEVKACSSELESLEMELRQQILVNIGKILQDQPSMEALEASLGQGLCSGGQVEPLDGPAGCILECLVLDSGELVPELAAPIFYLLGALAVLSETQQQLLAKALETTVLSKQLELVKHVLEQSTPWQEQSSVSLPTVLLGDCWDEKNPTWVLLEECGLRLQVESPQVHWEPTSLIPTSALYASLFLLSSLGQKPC

[4] = molecular target: T2, human gasdermin D (GSDMD), full length; test: nanoDSF thermal shift, 5 µM GSDMD + 5 µM VHH; SD 1.0 °C; GSDMD alone 50.2 °C (SD 0.3)
Protocol: (§1) One representative out of three experiments is shown. d, Unfolding temperatures of GSDMD, the nanobodies and GSDMD-nanobody complexes were determined using nanoDSF. The unfolding temperatures of GSDMD at 5 μM and the GSDMD nanobody complexes after addition of 5 μM nanobody are shown. N=x, data represented with SD. e, Unfolding temperatures of GSDMD and GSDMD-nanobody complexes.
(§2) The thermal stability of the nanobodies and their impact on the thermostability of GSDMD was further analyzed using a thermal shift assay by nano-differential scanning fluorimetry (FIG. 11D, E and FIG. 18).

[5] = molecular target: T2, human gasdermin D (GSDMD), full length; test: SPR (Biacore 8K), biotinylated GSDMD immobilized, nanobody as analyte, multi-cycle kinetics, 1:1 model
Protocol: (§3) Chemically biotinylated GSDMD was immobilized on a sensor chip and nanobodies were injected as analytes at the indicated concentrations for 120 s, followed by dissociation for 300 s. Dissociation constants (KDs) were determined from the association and dissociation fits by applying a 1:1 binding model. d, Epitope binning assay.
(§4) Surface plasmon resonance experiments were performed using a Biacore 8K instrument (GE Healthcare). The flow system was cleaned using the maintenance “Desorb” function (Desorb Kit, GE Healthcare). The system was flushed with running buffer (20 mM HEPES (pH 8.0), 200 mM NaCl, 5 mM DTT, 0.05% Tween20) and all steps were performed at 25° C. chip temperature. Chemically biotinylated GSDMD at a concentration of 100 nM was immobilized for 180 s on the flow cell 2 of a Series S Sensor Chip CAP using a biotin capture kit and a flow rate of 30 μl/min. The system was washed for 600 s with running buffer with a flow rate of 30 μl/min. Binding affinities were determined using multi-cycle kinetics. […] The association step was carried out for 120 s and the dissociation step for 300 s.

[6] = molecular target: T2, human gasdermin D (GSDMD), full length; test: nanoDSF titration, 5 µM GSDMD + 5 µM VHH; SD 1.0; GSDMD 5 µM alone 50.2 °C, VHH-2 50 µM alone 58.0 °C
Protocol: (§5) The melting temperatures of GSDMD and the nanobodies alone were determined at concentrations of 5 and 50 μM, respectively.

[7] = molecular target: T2, human gasdermin D (GSDMD), full length; test: nanoDSF thermal shift, 5 µM GSDMD + 5 µM VHH; SD 0.8 °C; GSDMD alone 50.2 °C (SD 0.3)
Protocol: as §1, §2

[8] = molecular target: T2, human gasdermin D (GSDMD), full length; test: nanoDSF titration, 5 µM GSDMD + 5 µM VHH; SD 0.8; GSDMD 5 µM alone 50.2 °C, VHH-5 50 µM alone 58.5 °C
Protocol: as §5

[9] = molecular target: T2, human gasdermin D (GSDMD), full length; test: nanoDSF thermal shift, 5 µM GSDMD + 5 µM VHH; SD 1.3 °C; GSDMD alone 50.2 °C (SD 0.3)
Protocol: as §1, §2

[10] = molecular target: T2, human gasdermin D (GSDMD), full length; test: nanoDSF titration, 5 µM GSDMD + 5 µM VHH; SD 1.3; GSDMD 5 µM alone 50.2 °C, VHH-3 50 µM alone 59.1 °C
Protocol: as §5

[11] = molecular target: T2, human gasdermin D (GSDMD), full length; test: nanoDSF titration, 5 µM GSDMD + 5 µM VHH; SD 1.0; GSDMD 5 µM alone 50.2 °C, VHH-1 50 µM alone 67.6 °C
Protocol: as §5

[12] = molecular target: T2, human gasdermin D (GSDMD), full length; test: nanoDSF thermal shift, 5 µM GSDMD + 5 µM VHH; SD 0.5 °C; GSDMD alone 50.2 °C (SD 0.3)
Protocol: as §1, §2

[13] = molecular target: T2, human gasdermin D (GSDMD), full length; test: SPR (Biacore 8K), chemically biotinylated GSDMD immobilised, VHH as analyte, multi-cycle kinetics, 1:1 fit
Protocol: as §3, §4

[14] = molecular target: T2, human gasdermin D (GSDMD), full length; test: nanoDSF titration, 5 µM GSDMD + 5 µM VHH; SD 0.5; GSDMD 5 µM alone 50.2 °C, VHH-6 50 µM alone 42.6 and 53.5 °C
Protocol: as §5

B1: VHH-4 (VHH)
VHH: QVQLVESGGGLVQPGGSLRLSCAASGFTLDRHAIAWFRQAPGLEREGVVCTSSSGAITNTADSVKGRFTISRDDAKNTVYLQMNSLKPEDTAIYYCAVRELWTVQPICEPRPRAYAYWGQGTQVTVSS
notes: Alpaca single-domain antibody; also called VHH AK-C10; GSDMD4; not shown: C-terminal HA-His tag (recombinant protein: SPR, nanoDSF, liposome assay, ELISA)
binding result [1]: no binding

B2: VHHGSDMD-2 (VHH)
VHH: QVQLVESGGGLVQPGGSLRLSCVDSRSWINVYGANWYRQAPGKERELVAALTSGGTTNYADSVKGRFTISRDNAKNTVYLQMRDLKPEDTAVYYCNLERYTGSSVYPWGQGTQVTVSS
notes: Alpaca single-domain antibody; The crystal model holds VHH-2 residues 1-118; One entry is used for all tag variants; also called VHH AK-C03; VHH-2; not shown: C-terminal tag that differs by assay: LPETG-His (recombinant protein: SPR, nanoDSF, liposome assay, crystal), HA-His6 (E)
increase of the thermal stability of GSDMD [2]: ≤ 9.4 °C
binding result [1]: no binding
binding result [3]: no binding
Tm of GSDMD with the VHH [4]: 56 °C
Kd [5]: 8.24 nM
Tm of GSDMD with the VHH [6]: 56 °C

B3: VHHGSDMD-5 (VHH)
VHH: QVQLVETGGGLVQPGGSLRLSCAASGFVFSINPMNWYRQAPGKERELVAYISMRGSTTNYADSVKGRFIISRDNAKNTLYLQMNSLKPEDTAVYYCNAPSRSVWGQGTQVTVSS
notes: Alpaca single-domain antibody; also called VHH AK-G04; VHH-5; not shown: C-terminal HA-His tag (recombinant protein: SPR, nanoDSF, liposome assay, ELISA) or HA tag (LUMIER)
decrease of the melting temperature of GSDMD [2]: ≤ 2.5 °C
binding result [1]: no binding
Tm of GSDMD with the VHH [7]: 48.8 °C
Kd [5]: 4.14 nM
Tm of GSDMD with the VHH [8]: 48.8 °C

B4: VHHGSDMD-3 (VHH)
VHH: QVQLVETGGGLVQPGGSLRLSCAASGFTLDIYNMGWFRQAPGKEREGVSCISSRYGTSTYYADSVKGRFTISRDNAKNTVYLQMNNLKPEDTAVYYCATVSWRFTTNQDVCLTPSVSGYWGQGTQVTVSS
notes: Alpaca single-domain antibody; One entry is used for all tag variants; also called VHH AK-H12; VHH-3; not shown: C-terminal tag that differs by assay: LPETG-His (recombinant protein: SPR, nanoDSF, liposome assay), HA-His6 (ELISA), HA
increase of the thermal stability of GSDMD [2]: ≤ 9.4 °C
binding result [1]: no binding
Tm of GSDMD with the VHH [9]: 54.1 °C
Kd [5]: 2.19 nM
Tm of GSDMD with the VHH [10]: 54.1 °C

B5: VHHGSDMD-1 (VHH)
VHH: QVQLVESGGALVQPGGSLRLSCSASGFTFSKYLMSWYRQAPGKERELVATITTAGGNTNYADSVKGRFTISRDNAKNTVYLQMNSLKPEDTAVYYCKASGGTIRTVNETYWGQGTQVTVSS
notes: Alpaca single-domain antibody; One entry is used for all tag variants; also called VHH AK-A04; VHH-1; not shown: C-terminal tag that differs by assay: LPETG-His (recombinant protein: SPR, nanoDSF, liposome assay), HA-His6 (ELISA), HA
increase of the thermal stability of GSDMD [2]: ≤ 9.4 °C
binding result [1]: no binding
binding result [3]: no binding
Tm of GSDMD with the VHH [4]: 59.6 °C
Kd [5]: 0.55 nM
Tm of GSDMD with the VHH [11]: 59.6 °C

B6: VHHGSDMD-6 (VHH)
VHH: QVQLVETGGGLVQPGGSLRLSCTASGFIFSANQMNWVRQAPGKGLEWLSGISTRGDTTSYADSVKGRFTISRDNAKNTLYLQMNSLQPDDTAVYFCARVCIRGPEPKLRCDDWGQGTQVTVSS
notes: Alpaca single-domain antibody; The crystal model holds VHH-6 residues 1-123; also called VHH AK-G08; VHH-6; not shown: C-terminal HA-His tag (recombinant protein: SPR, nanoDSF, liposome assay, crystal, ELISA)
increase of the thermal stability of GSDMD [2]: 4.2 °C
Tm of GSDMD with the VHH [12]: 54.4 °C
Kd [13]: 280 nM
Tm of GSDMD with the VHH [14]: 54.4 °C
